The data set concerns MS2 coat protein. The data set can be described thus: apparent KD of MS2 coat protein; designed switch direction (-1 OFF switch, 1 ON switch): -1; higher = weaker reporter binding. The essentials:
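An oligonucleotide input, 200 uM small-molecule ligand, or no input was present during titration of SNAP-549-labelled MS2 coat protein, which was doubled from 0.7 or 1.5 nM to 3 µM. Designed RNA switches had been transcribed on Illumina chips by stalled E. coli RNA polymerase. Apparent KD per design is the median over clusters of curves fitted to normalised cluster fluorescence.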

The mark [1] stands for this setting: Eterna round: R95, input ligand: microRNA oligo, concentration not stated.
[2] abbreviates: input ligand: microRNA oligo, concentration not stated.
[3] abbreviates: Eterna round: R95, input ligand: FMN 200 uM.
[4] abbreviates: Eterna round: R95, input ligand: none.

This is an account of results in the supplement of paper PMC9170038.

For “CUCGGACAUGAGGAUCACCCAUGUGAGGAUAUGGUGCUAUCGUCAUUAGACGAUUGCGUUAGAAGGCACAAAUG [LRO-Excl1-28] (puzzle: Exclusion 1)”, the “apparent KD of MS2 coat protein” value under setting [1] was determined as 35.2 nM.
Take “GGUCAGAUGGUAGGAUAUUUAUAUCGAGUGACCCUUUCAUAACAUGAGGAUCACCCAUGUCGGUGGGAGAAGGGCCGUACGGCG [salish99_ExNG02_R04_013] (Eterna round: R96, puzzle: Exclusion NG 2)”: the “apparent KD of MS2 coat protein” value is, setting by setting: (input ligand: FMN 200 uM) 37.7 nM; under setting [2], 33.1 nM; (input ligand: none) 45.7 nM.
Consider “AAGAUGUGAGGAUAUGUAUCGCAUAUAGAGCGAACACUAGGAUAGAAGGCACAUGAGGAUCACCCAUGUGAUCG [Eternabot (L2) Solution 73] (Eterna round: R97, puzzle: Exclusion 4)”, for which the “apparent KD of MS2 coat protein” value came to 39.9 nM (input ligand: FMN 200 uM) and 45.3 nM (input ligand: none).
With “ACUGGAGCAGGAUAUACAUAACGUGCUUCGGCACGAGAUCUACAUGAGGAUCACCCAUGUAGAAGGGCUCCAGU [E2/10-D1] (Eterna round: R97, puzzle: Exclusion 2)”, the “apparent KD of MS2 coat protein” value (input ligand: FMN 200 uM) is 28.3 nM and the “apparent KD of MS2 coat protein” value (input ligand: none) is 13.3 nM.
On to “AGUAGGUCUACCUUGGUGGAUCUGCAUAAAGCAAGUGAUACAUGAGGAUCACCCAUGUCCUCAUUUGCUCGUCUUAU [JL turnoff v2 99.21] (puzzle: Sensor v3, turn-off variant 2)”, for which the “apparent KD of MS2 coat protein” value amounted to 14 nM under setting [3], 216 nM under setting [1] and 14.1 nM under setting [4].
Regarding “ACUUACUGAGGAUAUACAUAGAUAAACAUGAGGAUCACCCAUGUUCCUAUAAGUAUAUAUGUAGAAGGCAGAAGAA [JR_Ex5_Sub074] (Eterna round: R97, puzzle: Exclusion 5)”, the “apparent KD of MS2 coat protein” value (input ligand: FMN 200 uM) came out at 24.2 nM and the “apparent KD of MS2 coat protein” value (input ligand: none) is 14.7 nM.
For the sequence “GCGCGUAGAUAGGAUAUUUGAUAAAGACGGACCAAAGAAGGAUUUACAUGAGGAUCACCCAUGUCGAUCCUCUU [EX6 C.17] (Eterna round: R97, puzzle: Exclusion 6)”, the “apparent KD of MS2 coat protein” value is 14.2 nM (input ligand: FMN 200 uM) and 16.4 nM (input ligand: none).
In the case of “CCAUGUUAGCAGGAUAUGCAAUUAUUCUUUUACGCAGAAGGGCUUACAUGAGGAUCACCCAUGUAACAUUUCAU [JR_E6_Sub082] (puzzle: Exclusion 6)”, under setting [1], the “apparent KD of MS2 coat protein” value amounted to 17.2 nM.
With “GAUCACUGAGGAUAUACACAGAUACAAAGUAUCUGAUGGUGACAUGAGGAUCACCCAUGUAGAAGGCAGAGGUC [Omei Ex2 B7] (Eterna round: R97, puzzle: Exclusion 2)”, the “apparent KD of MS2 coat protein” value was found to be 290 nM (input ligand: FMN 200 uM) and 495 nM (input ligand: none).
Turning to “AAUAAUAAGGAGGAUAUCGUAUCCGAAAGGAUACGAGAAGGCCUAACAUGAGGAUCACCCAUGUUCCUCAAUAA [Mat - Exclusion 6 - Eli Mod - D54] (puzzle: Exclusion 6)”, the “apparent KD of MS2 coat protein” value runs as follows: under setting [3], 773 nM; under setting [1], 264 nM; under setting [4], 267 nM.
As to “UCUAGCUUUUUGCGUCAAGCAUUGAAGUCUGUGAUCGUUACAUGAGGAUCACCCAUGUAUGUUUUAUGUCGUCUUGU [JR_SV3TOV2_Sub099] (puzzle: Sensor v3, turn-off variant 2)”, the “apparent KD of MS2 coat protein” value was determined as 37.2 nM under setting [3], 33.1 nM under setting [1] and 43.9 nM under setting [4].
“AGAUCUAGGACAGGAUAUACCGAUGGCUUCAUCGAAGAUGAAGCCAUCACAUGAGGAUCACCCAUGUAGAAGGGUCCUAGAUCA [Omei Exc(NG) 2Av9] (Eterna round: R96, puzzle: Exclusion NG 2)”: the “apparent KD of MS2 coat protein” value (input ligand: FMN 200 uM) is 11.5 nM, the “apparent KD of MS2 coat protein” value under setting [2] was determined as 9.95 nM and the “apparent KD of MS2 coat protein” value (input ligand: none) is 13.7 nM.
In the case of “ACUUAUAGAGGAUAUACAGUUUAUUACAUGAGGAUCACCCAUGUUCUUCAAUGUCCUAAAGUAGAAGGCUAAGGAA [Mat - Exclusion 5 - Eli Mod - D12] (Eterna round: R97, puzzle: Exclusion 5)”, the “apparent KD of MS2 coat protein” value reads like this: (input ligand: FMN 200 uM) 18.8 nM; (input ligand: none) 16.2 nM.
In the case of “CGCUAUAGAGGAUAUACGAGAUCGAAAGAUCGGCGAUCCCUACAUGAGGAUCACCCAUGUAGAAGGCUAUAGCG [Mod 18 - Jieux - Exclusion 2] (Eterna round: R97, puzzle: Exclusion 2)”, the “apparent KD of MS2 coat protein” value (input ligand: FMN 200 uM) is 83.3 nM and the “apparent KD of MS2 coat protein” value (input ligand: none) is 15.7 nM.
Take “GAGUACUGAGGAUAUACAUGAGGAUCACCCAUGUGUUCCAACUAGGAAUCUAGAGUAUGUAGAAGGCAGUGCUG [salish99_ex3_r4_704] (Eterna round: R97, puzzle: Exclusion 3)”: the “apparent KD of MS2 coat protein” value reads like this: (input ligand: FMN 200 uM) 145 nM; (input ligand: none) 130 nM.
With “CUGAGGUAGCGGUCCUAUGACAUGAGGAUCACCCAUGUACCUUGCUUUGAGCUUUUAGCUCGUCUUAUGAUUCUCGG [Mat - Sensor v3 - turn-off var 1 - JL Mod - D43] (puzzle: Sensor v3, turn-off variant 1)”, the “apparent KD of MS2 coat protein” value under setting [3] was 271 nM, the “apparent KD of MS2 coat protein” value under setting [1] turned out to be 235 nM and the “apparent KD of MS2 coat protein” value under setting [4] amounted to 446 nM.
Take “CUCCUCCCGAAGGAUAUCCACGCCAACUUCGUAGGAGAAGGUCGGACAUGAGGAUCACCCAUGUGGCCAUGGUU [Gezateza] (puzzle: Exclusion 6)”: the “apparent KD of MS2 coat protein” value under setting [1] came out at 16 nM.
Regarding “CCUGCACAUGAGGAUCACCCAUGUCAGGAUAUCUCGCCGCGAAGAGCAACACGGUAUUAGAGAAGGGACACGGG [Bimavees] (puzzle: Exclusion 1)”, under setting [1], the “apparent KD of MS2 coat protein” value was 24.5 nM.
Take “ACAUGCUAGUAGGAUAUCGUACGCCGAAUAGUAUGAGAAGGAUUGACAUGAGGAUCACCCAUGUGAUGCCUGAA [Quveedes] (Eterna round: R97, puzzle: Exclusion 6)”: the “apparent KD of MS2 coat protein” value (input ligand: FMN 200 uM) was 22 nM and the “apparent KD of MS2 coat protein” value (input ligand: none) is 18.7 nM.
For the sequence “CUGAAGAAGUUAGUGGCCUACAUGAGGAUCACCCAUGUGAGGGACAUGUCGAGGCAGAAGCUGAGUGCUCGUCUGUA [JR_SV3TOV1_Sub042] (puzzle: Sensor v3, turn-off variant 1)”, the “apparent KD of MS2 coat protein” value runs as follows: under setting [3], 16 nM; under setting [1], 20 nM; under setting [4], 17 nM.
Consider “GACAUGAGGAUCACCCAUGUAAGGGAUGAACUUCUGGGUAGCUAGGAUAUGGCUAUAAAGAUGGACCAGAAGGAGCGGACCCUA [Orlaveceat] (Eterna round: R96, puzzle: Exclusion NG 3)”, for which the “apparent KD of MS2 coat protein” value (input ligand: FMN 200 uM) was determined as 48.7 nM, the “apparent KD of MS2 coat protein” value under setting [2] was found to be 31.4 nM and the “apparent KD of MS2 coat protein” value (input ligand: none) was determined as 32.4 nM.
Turning to “AGAUGGCGAGGAUAUACAUGAGGAUCACCCAUGUGAGAGAUUAGAGUGAGGAAGAAAAGUAGAAGGCGCUGUCA [Mat - Exclusion 3 - Mod of Salish D18] (puzzle: Exclusion 3)”, the “apparent KD of MS2 coat protein” value by setting is: under setting [3], 167 nM; under setting [1], 98.4 nM; under setting [4], 144 nM.
Consider “CCCUCACAUGAGGAUCACCCAUGUCAGGAUAUCUCACAUCGGCCUUAGGCCAAUGUCAAGAGAAGGGACGUAUC [Usanvequin] (puzzle: Exclusion 1)”, for which, under setting [1], the “apparent KD of MS2 coat protein” value worked out at 21.7 nM.
With “CCUCUACAUGAGGAUCACCCAUGUGAGGAUAUCAAAGCCAGAACGGAUCUCUGGCCCAUGAGAAGGUGCAUGGA [EX1 A.2] (Eterna round: R97, puzzle: Exclusion 1)”, the “apparent KD of MS2 coat protein” value runs as follows: (input ligand: FMN 200 uM) 119 nM; (input ligand: none) 22.3 nM.
Consider “AUAAACCUAGGAUAUACAUGAGGAUCACCCAUGUAAGGGCAAUGCCCAUGCUCCUCAUGUAGAAGGAGGAGCAG [Xezausa] (puzzle: Exclusion 3)”, for which, under setting [1], the “apparent KD of MS2 coat protein” value was 20.2 nM.
Take “GUGGAACAUGAGGAUCACCCAUGUGAGGAUAUGUGAGAAGGAUUUGAGAUGGAGAGGGACAGAAGGCACUAGGA [JR_Exclu1_Sub083] (puzzle: Exclusion 1)”: the “apparent KD of MS2 coat protein” value reads like this: under setting [3], 36.3 nM; under setting [1], 39.4 nM; under setting [4], 55.8 nM.
Regarding “CAGUACUGAGGAUAUACAUGAGGAUCACCCAUGUGCUCCAGCUAGGAAACUAGCAAAAGUAGAAGGCAGUACUG [828 mod 2 m8] (Eterna round: R97, puzzle: Exclusion 3)”, the “apparent KD of MS2 coat protein” value came to 3960 nM (input ligand: FMN 200 uM) and 101 nM (input ligand: none).
As to “AUAUAUAGUGUGAGGAUAUGCUGGUCCUUGGAUCAGCAGAAGGCACAUGAGGAUCACCCAUGUAGUUUAUUUUA [Mat - Exclusion 4 - JL Mod - D1] (puzzle: Brourd's mod of Exclusion 4)”, the “apparent KD of MS2 coat protein” value under setting [1] came to 29.3 nM.
As for “ACGAAACAUGAGGAUCACCCAUGUGAGGAUAUGUAAAUAGUAAACAAAUAAGAAAUAAACAGAAGGCACACAGG [JR_Exclusion1_Sub004] (puzzle: Exclusion 1)”, the “apparent KD of MS2 coat protein” value came out at 57.2 nM under setting [3], 26.3 nM under setting [1] and 28.2 nM under setting [4].
“ACAUGAGGAUCACCCAUGUUUGGCUGGUUCUCUCCGGCUGUCGAGGAUAUAGUCCGGUAUCCGCGCUAGAAGGUGAGGGCUGGC [Aenatbe mod 6] (Eterna round: R96, puzzle: Exclusion NG 3)”: the “apparent KD of MS2 coat protein” value is 17 nM (input ligand: FMN 200 uM), 12.3 nM under setting [2] and 16.1 nM (input ligand: none).
As for “ACUACUAACACGAAAGUGUUAGUACAAUAAGCUUGUGAAACAUGAGGAUCACCCAUGUCCUCAUAAGCUCGUCUUAA [salish99_TOv2_r3_012] (puzzle: Sensor v3, turn-off variant 2)”, the “apparent KD of MS2 coat protein” value came to 14.4 nM under setting [3], 211 nM under setting [1] and 13.8 nM under setting [4].
As to “AGUAGUAGUAUCCGAUCUUACAUGAGGAUCACCCAUGUUUCUAGACGUGCACGCGAUGCUCGUCAGACUACCAGAUG [salish99_TOv1_r3_053] (puzzle: Sensor v3, turn-off variant 1)”, the “apparent KD of MS2 coat protein” value was 128 nM under setting [3], 173 nM under setting [1] and 174 nM under setting [4].
